Experiment: soluble on expression in E. coli; label from the status in PepcDB or PDB records

Sequence | soluble on expression in E. coli
GMEAHMKSHNLLEAVRFDDQRFVMELVHESENFKIVSFTFKAGQELPVHSHNIEGELNIVVLEGEGEFVGDGDAVIPAPRGAVLVAPISTPHGVRAVTDMKVLVTIAPPI | soluble
MGSDKIHHHHHHMNQPDAYLWEQHIPGGCHWSGILRRGTTLRMTDVSGGANASVLFFNQEEKLERYNMADTLKSQHTFRLTKGHACHSDMGRIFCCITADSAGWHDTVCGLSDADLIRRKYGTARYQEHRNQMFRNGLDGMLIELGKWGLGMRDVVSNINFFSKVTANSAGELTFHSGNSKAGDHVDLSFEMDTLVVLSAAPHPLDPSTTYQPGAVNLAAFATPSSAIAECAHISENQRARQNTECLYACHGGAA | not soluble
MSYNSIRLPQDLPIYYKNFFPVKPFTKWLRYGQNNGDYFNRREFAFILADDVHIRYRSYNDEHAFFKALSSTNPEKLDIGAVYNHEPINNKRHTDYQAVERELVFDIDLTDYDPVRNCCKDATVCPKCWKFMVLAVKILDFQLEDMFDFKARMWVFSGRRGVHCWVGDKKARMLNNYQRSAIATRLNLFKKNGQCEVTEGRAKMTKVPPIVRDAFNVALKDGVFEKMIYDQGWLDKEDFITEYKFMSEVGRDDLRSLSETYKTPQERWNMIRGLFDDDYRKSLSPKDGLLDFKMQGRDRNYLLYFVLQRCYPRLDVNVSTGTNHLLKSPFCIHPKTGNVAVPLNVGKIEEFDVSKCPRIDHVVEELSSLLAERGNDENEDSKNRKFLAYKHGALAPYVENFEKFVSACIS | not soluble
MSLMNKSQQVQTITLAAAQQMAAAVEKKATEINVAVVFSVVDRGGNTLLIQRMDEAFVSSCDISLNKAWSACSLKQGTHEITSAVQPGQSLYGLQLTNQQRIIIFGGGLPVIFNEQVIGAVGVSGGTVEQDQLLAQCALDCFSALEGGSHHHHHH | soluble
MSYVAEKKKIANVLSNRYASAELTELWSPEAKILLERQLWIAVMKAQKNLGVDIPTEAISAYEAVIDRIDLDSIAQREKITRHDVKARIEEFNALAGYEHIHKGMTSRDLTENVEQLQIYRSLEMMRNKSVSVAAAIAQHAAQYQSLVMAGRSHNVAAQATTLGKRFASAAEEILVAIDRVEDLLSRYPLRGIKGPMGTAQDMLDLVGGDESKLAALETQIADHLGIARVFDSVGQVYPRSLDFDAVSALVQLGAGPSSLAHTIRLMAGNETVTEGFKEGQVGSSAMPHKMNARSCERVGGLQVILRGYLTMVADLSGQQWNEGDVFCSVIRRVALPDAFFALDGMYETFLTVLAEFGAFPAMIDRELERYLPFLATTRILMAAVRVGVGRETAHEVIKENAVAVALNMRENGGEQDLIDRLAADERLPMTREQLDEALADRHAFIGAAESQVARVVDRVNDLVRRYPAAAQYTPGDIL | not soluble
VKLTEKQKAFCDYYIETLNATESYKKAGYKVKTDGAARVNASRLLTNANVRKYIEERMKQKESERIASQDEVLEFLTRVMRGQEVEEVVGFTEYGAVKEKKTPSARDRVKAAELLGKRYALFTEKVNVEGNMGVAIIDDIKEDDSDDAS | soluble
MGSDKIHHHHHHMNLPSILVIDDLPDNFDVIETLLSEQDYTLHYVASGQEAIASLNLFQPDLILLDVMMPGMDGIEVCQRIKAMPQWQSVPIIMVTALTAKEDLARCLKSGADDFISKPINALELRARLHSMLRIKQQYDKIQTLSNIQTSTIKVLESTLDELRGNLAAALPHELNTPLNGIVGTISILMADIENMDTGEIQELLGWVDLSARNLERLIKQLLLYLELELSTNQQQNIASESTHFSIAVIEAILQSHAPSVNRRDDLMFAIEEAEVSISARYLAIIIYELVDNALKFSRRGTTIKISSQVVAGMLNVYIHDFGRGMTEEQISKIGAFMQFERKTYEQQGIGMGLKLAKQIIESHGGLFSISSVYKKETMVHIALPIAYSRYLS | not soluble
MSLSLRDEALEMHKRNQGKLEVKPNVKVTNKEELSLAYSPGVAEPCKDIYEDKRKVYDYTIKGNTVAVITDGTAVLGLGNIGPEASIPVMEGKAVLFKSFAGINGVPIALNTTDTEEIIKTVKLLEPNYGGINLEDISAPRCFEIEERLKKETNIPVFHDDQHGTAIVTMAGLVNALRVVNKDIAKIKVVLNGAGAAGIAIVKLLYAYGVRNMVMCDSRGAIFEGRSYGMNPTKDVVAKWTNKDKIEGSLEEVVKDADVFIGVSVANALSQDMVKSMADNPIIFAMANPNPEIIPDDAKAAGARVVGTGRSDYPNQINNVLAFPGIFRGALEVEATHINEEMKKAAVEAIADLIDSSELNEDYCIPGPFDKRVAPSVARNVAKAAMESGVARIEVDPQDVYDKTMKLTDLQEGHHHHHH | soluble
MPAHPAKTDLASSAGARGGALAMESAEHSASPAIATTARLLAAMKDQPGALLPVLHAVQDELGFIPPEAVQTIAETLSLSRAEVHGVITFYPHFRSEPAGRHVLEICRAESCQAMGGDALAAHARQRLGCEFHATAADGSCTLEPVYCLGLCAQSPAVMIDGQPHARVTPAKLDRLLARAIEATP | not soluble
MSSFTHFNDQGRAKMVDISDKKATVRTAIACSSIVVTKEIYDKISHNEIGKGDVLAVAQIAGIMAAKRTSDIIPMCHPLLLKGVDVSFDWKQSDEQYRLLIEVKVKTEGSTGVEMEALTAASATALTVYDMCKAVDKGMIIGETYLLEKTGGKSGDYTRKS | not soluble
MGSDKIHHHHHHMRVNSTDLQNAFGKYLSLLEKEDIIITKNGRSVAKLLRYNEPDYFLVHEESKNYKTTKRISYEEYMDLVDSSDQRYELIDGENYLLATPSFKHQVVVNEISGHFYNYFRGKSCRSLTSPFDVRLFGFATKFEEDPNVVQPDVVVICDLDKINEANKYEGIPSLIVEVLSPSTKGKDMVMKLNLYMKSGVLEYWVVDMESKSILQYSFSPERDIDSLKSLGEEDTIESSAFAGLKILLGEIFAEI | not soluble
MGHHHHHHSHMSGSAMQEGLSPNHLKKAKLMFFYTRYPSSNMLKTYFSDVKFNRCITSQLIKWFSNFREFYYIQMEKYARQAINDGVTSTEELSITRDCELYRALNMHYNKANDFEVPERFLEVAQITLREFFNAIIAGKDVDPSWKKAIYKVICKLDSEVPEIFKSPNCLQELLHE | soluble
MGSDKIHHHHHHMALPSLNGMRAFEAAARLGSIKDAAEELHLTPSAISRHIRALERNLGQDLFERGFRQITPTIRGSYYARSLSEAFEAIWRATDDVSLADGPSHGRTQRVRVLCVPAVLNLWLADRLPNFRRLHPAVELEISTSGKRANFDLAIVDEFVYKAGPALTLLIPLVLTPVCAPSLLDGPVPLRSPADLVNHHLIHECESMRWKRWLEQEGVLDTTPKSSTTLDDCTLIMREAINGAGIALADTMMAQDFLQQGKLVAPFPARHTYPAGIYLHQRRSIGNKPGTGLFQDWLLSEVEDHKRVMAIA | not soluble
MATIRKADYYYGALLSALVNGGLAPALFEKENDNRQIYEVTTNKASYIMYTKYNTNPSGSKDFTWSFVFSDHEIAEINKIYLEHSKEKEIMFAFVCAQKQPSDSNQVIAIVRWNEFLECVDLQRQQVRGTPRLSIKAVKGSPKLRLYGSKRADVLDGKDHTIKIERNRLNSL | not soluble
MSKYAILGLVLVGTVASLDFIGRTQSAAIKGRLVCEGKPASGVKVKLMESDNSFGPGFLDSDDKMASGKADSHGEFNLSGSTKEITGIEPYLVVFHDCKDGITPCQRVFRVNVPKSYTNSGSSAKKTYDAGVIELAGKYPGETRSCLN | not soluble
MEKEIKEKNLPLELTLVEASPRVGGKIQTVKKDGYIIERGPDSFLERKKSAPQLVKDLGLEHLLVNNATGQSYVLVNRTLHPMPKGAVMGIPTKIAPFVSTGLFSLSGKARAAMDFILPASKTKDDQSLGEFFRRRVGDEVVENLIEPLLSGIYAGDIDKLSLMSTFPQFYQTEQKHRSLILGMKKTRPQGSGQQLTAKKQGQFQTLSTGLQTLVEEIEKQLKLTKVYKGTKVTKLSHSGSCYSLELDNGVTLDADSVIVTAPHKAAAGMLSELPAISHLKNMHSTSVANVALGFPEGSVQMEHEGTGFVISRNSDFAITACTWTNKKWPHAAPEGKTLLRAYVGKAGDESIVDLSDNDIINIVLEDLKKVMNINGEPEMTCVTRWHESMPQYHVGHKQRIKELREALASAYPGVYMTGASFEGVGIPDCIDQGKAAVSDALTYLFS | not soluble

From the DeepSol protein solubility set
